Laboratory results from paper PMC4553094 (Thrombosis research, 2015).

T1: Human placenta type III collagen (human, UniProt P02461 154-1221, covalently modified with maleimide-PEG3500-NHS for coupling to beads)
T1 sequence (looked up): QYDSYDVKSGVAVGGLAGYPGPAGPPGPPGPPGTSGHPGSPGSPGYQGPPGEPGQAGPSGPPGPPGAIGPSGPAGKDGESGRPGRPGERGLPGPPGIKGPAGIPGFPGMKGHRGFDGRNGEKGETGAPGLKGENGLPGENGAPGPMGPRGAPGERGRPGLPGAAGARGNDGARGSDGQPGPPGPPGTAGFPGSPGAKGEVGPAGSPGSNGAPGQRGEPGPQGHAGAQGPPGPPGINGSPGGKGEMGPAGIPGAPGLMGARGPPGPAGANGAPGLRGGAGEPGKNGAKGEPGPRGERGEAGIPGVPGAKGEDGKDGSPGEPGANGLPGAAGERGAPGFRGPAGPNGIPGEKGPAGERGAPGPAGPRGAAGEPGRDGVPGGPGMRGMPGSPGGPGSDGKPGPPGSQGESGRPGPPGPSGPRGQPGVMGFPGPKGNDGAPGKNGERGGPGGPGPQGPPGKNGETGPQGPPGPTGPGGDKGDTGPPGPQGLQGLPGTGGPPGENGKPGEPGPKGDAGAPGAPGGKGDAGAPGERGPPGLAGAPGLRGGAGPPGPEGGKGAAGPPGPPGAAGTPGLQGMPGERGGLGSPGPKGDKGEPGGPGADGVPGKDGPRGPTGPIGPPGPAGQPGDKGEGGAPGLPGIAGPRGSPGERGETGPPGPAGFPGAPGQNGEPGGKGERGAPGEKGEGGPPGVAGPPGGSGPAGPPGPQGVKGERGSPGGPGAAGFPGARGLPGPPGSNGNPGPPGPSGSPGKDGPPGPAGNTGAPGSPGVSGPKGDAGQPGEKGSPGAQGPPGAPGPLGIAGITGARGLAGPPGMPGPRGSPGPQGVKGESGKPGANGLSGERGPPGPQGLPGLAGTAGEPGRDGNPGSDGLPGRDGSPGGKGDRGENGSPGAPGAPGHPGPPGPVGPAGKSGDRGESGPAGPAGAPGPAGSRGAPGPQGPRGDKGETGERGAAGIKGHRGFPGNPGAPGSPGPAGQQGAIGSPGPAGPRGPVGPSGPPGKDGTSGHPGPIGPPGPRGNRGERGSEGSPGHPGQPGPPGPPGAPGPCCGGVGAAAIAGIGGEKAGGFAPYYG


What was measured:
[1] = target: Glycoprotein Ib-IX complex captured from platelet lysates (human (endogenous in platelets)) (UniProt P07359); assay: biomembrane force probe
[2] = target: T1, Human placenta type III collagen; assay: biomembrane force probe

bond lifetime at the peak force [1] [s]	affinity to collagen relative to that of A1 [2] [times]	Molecule
3.1	–	Plasma von Willebrand factor (from UniProt P04275 764-2813) (natural protein)
1.5	–	Recombinant wild-type monomeric VWF 1238-A1 (residues 1238-1471) (from UniProt P04275 1238-1471) (domain or fragment)
–	10	Recombinant wild-type monomeric VWF A3 domain (residues 1687-1874) (domain or fragment) SQPLDVILLLDGSSSFPASYFDEMKSFAKAFISKANIGPRLTQVSVLQYGSITTIDVPWNVVPEKAHLLSLVDVMQREGGPSQIGDALGFAVRYLTSEMHGARPGASKAVVILVTDVSVDSVDAAADAARSNRVTVFPIGIGDRYDAAQLRILAGPAGDSNVVKLQRIEDLPTMVTLGNSFLHKLCSG
